{
  "source": "patent US20250352667A1",
  "binders": {"B1": {"name": "NRF2 isoform 1 (wild-type full-length), FLAG-tagged (protein)", "chain": "MMDLELPPPGLPSQQDMDLIDILWRQDIDLGVSREVFDFSQRRKEYELEKQKKLEKERQEQLQKEQEKAFFAQLQLDEETGEFLPIQPAQHIQSETSGSANYSQVAHIPKSDALYFDDCMQLLAQTFPFVDDNEVSSATFQSLVPDIPGHIESPVFIATNQAQSPETSVAQVAPVDLDGMQQDIEQVWEELLSIPELQCLNIENDKLVETTMVPSPEAKLTEVDNYHFYSSIPSMEKEVGNCSPHFLNAFEDSFSSILSTEDPNQLTVNSLNSDATVNTDFGDEFYSAFIAEPSISNSMPSPATLSHSLSELLNGPIDVSDLSLCKAFNQNHPESTAEFNDSDSGISLNTSPSVASPEHSVESSSYGDTLLGLSDSEVEELDSAPGSVKQNGPKTPVHSSGDMVQPLSPSQGQSTHVHDAQCENTPEKELPVSPGHRKTPFTKDKHSSRLEAHLTRDELRAKALHIPFPVEKIINLPVVDFNEMMSKEQFNEAQLALIRDIRRRGKNKVAAQNCRKRKLENIVELEQDLDHLKDEKEKLLKEKGENDKSLHLLKKQLSTLYLEVFSMLRDEDGKPYSPSEYSLQQTRDGNVFLVPKSKKPDVKKN"}, "B2": {"name": "NRF2 isoform 1 (I86V full-length), FLAG-tagged (protein)", "chain": "B1 chain with I86V"}, "B3": {"name": "NRF2 isoform 1 (I28V full-length), FLAG-tagged (protein)", "chain": "B1 chain with I28V"}, "B4": {"name": "NRF2 isoform 1 (Q75R full-length), FLAG-tagged (protein)", "chain": "B1 chain with Q75R"}},
  "key": {"[1]": {"target": "KEAP1 (wild-type full-length), His-tagged (human) (UniProt Q14145)", "sequence (Q14145 2-624 limits assumed)": "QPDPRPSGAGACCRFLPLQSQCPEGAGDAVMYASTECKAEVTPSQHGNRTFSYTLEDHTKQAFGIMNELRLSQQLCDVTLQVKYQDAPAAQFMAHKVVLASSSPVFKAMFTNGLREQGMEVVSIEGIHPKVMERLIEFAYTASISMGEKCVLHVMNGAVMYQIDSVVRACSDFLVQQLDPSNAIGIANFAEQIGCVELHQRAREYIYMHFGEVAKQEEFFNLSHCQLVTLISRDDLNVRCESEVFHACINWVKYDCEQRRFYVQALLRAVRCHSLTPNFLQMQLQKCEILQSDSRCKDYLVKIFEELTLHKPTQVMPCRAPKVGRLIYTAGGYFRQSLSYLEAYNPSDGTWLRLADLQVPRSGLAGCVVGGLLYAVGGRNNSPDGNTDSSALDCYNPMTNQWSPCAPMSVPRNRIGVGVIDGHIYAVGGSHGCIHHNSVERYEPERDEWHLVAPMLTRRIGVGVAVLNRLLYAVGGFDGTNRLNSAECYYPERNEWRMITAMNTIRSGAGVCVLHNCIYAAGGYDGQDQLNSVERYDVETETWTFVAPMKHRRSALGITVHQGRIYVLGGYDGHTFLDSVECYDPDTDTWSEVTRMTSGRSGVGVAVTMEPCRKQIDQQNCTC", "assay": "AlphaScreen; 4.8 nM FLAG-NRF2, 150 nM His-KEAP1; Rep 2; control for I28V"}, "[2]": {"target": "KEAP1 (wild-type full-length), His-tagged (human) (UniProt Q14145)", "assay": "AlphaScreen; 4.8 nM FLAG-NRF2, 150 nM His-KEAP1; Rep 2; control for I86V"}, "[3]": {"target": "KEAP1 (wild-type full-length), His-tagged (human) (UniProt Q14145)", "assay": "AlphaScreen; 19.2 nM FLAG-NRF2, 150 nM His-KEAP1; Rep 1; control for I28V"}, "[4]": {"target": "KEAP1 (wild-type full-length), His-tagged (human) (UniProt Q14145)", "assay": "AlphaScreen; 19.2 nM FLAG-NRF2, 150 nM His-KEAP1; Rep 2; control for I28V"}, "[5]": {"target": "KEAP1 (wild-type full-length), His-tagged (human) (UniProt Q14145)", "assay": "AlphaScreen; 38.4 nM FLAG-NRF2, 150 nM His-KEAP1; Rep 1; control for I28V"}, "[6]": {"target": "KEAP1 (wild-type full-length), His-tagged (human) (UniProt Q14145)", "assay": "AlphaScreen; 76.8 nM FLAG-NRF2, 150 nM His-KEAP1; Rep 1; control for I28V"}, "[7]": {"target": "KEAP1 (wild-type full-length), His-tagged (human) (UniProt Q14145)", "assay": "AlphaScreen; 38.4 nM FLAG-NRF2, 150 nM His-KEAP1; Rep 3; control for I86V"}, "[8]": {"target": "KEAP1 (wild-type full-length), His-tagged (human) (UniProt Q14145)", "assay": "AlphaScreen; 153.6 nM FLAG-NRF2, 150 nM His-KEAP1; Rep 1; control for I28V"}, "[9]": {"target": "KEAP1 (wild-type full-length), His-tagged (human) (UniProt Q14145)", "assay": "AlphaScreen; 153.6 nM FLAG-NRF2, 150 nM His-KEAP1; Rep 2; control for I86V"}, "[10]": {"target": "KEAP1 (wild-type full-length), His-tagged (human) (UniProt Q14145)", "assay": "AlphaScreen; 9.6 nM FLAG-NRF2, 150 nM His-KEAP1; Repeat 1 (same value as in Table 26)"}, "[11]": {"target": "KEAP1 (wild-type full-length), His-tagged (human) (UniProt Q14145)", "assay": "AlphaScreen; 38.4 nM FLAG-NRF2, 150 nM His-KEAP1; Repeat 2 (same value as in Table 26)"}, "[12]": {"target": "KEAP1 (wild-type full-length), His-tagged (human) (UniProt Q14145)", "assay": "AlphaScreen; FLAG-NRF2 wt isoform 1 9.6 nM, His-KEAP1 150 nM; Rep 3; positive control for I86V"}, "[13]": {"target": "KEAP1 (wild-type full-length), His-tagged (human) (UniProt Q14145)", "assay": "AlphaScreen; FLAG-NRF2 wt isoform 1 38.4 nM, His-KEAP1 150 nM; Rep 2; positive control for I86V"}, "[14]": {"target": "KEAP1 (wild-type full-length), His-tagged (human) (UniProt Q14145)", "assay": "AlphaScreen; NRF2 wt isoform 1 9.6 nM, KEAP1 150 nM; signal against NRF2-only control; control for I86V"}, "[15]": {"target": "KEAP1 (wild-type full-length), His-tagged (human) (UniProt Q14145)", "assay": "AlphaScreen, all variants on one plate; upper condition (38.4 nM NRF2), KEAP1 150 nM; the reference itself"}, "[16]": {"target": "KEAP1 (wild-type full-length), His-tagged (human) (UniProt Q14145)", "assay": "AlphaScreen; FLAG-NRF2 I86V 38.4 nM, His-KEAP1 150 nM; Rep 2"}, "[17]": {"target": "KEAP1 (wild-type full-length), His-tagged (human) (UniProt Q14145)", "assay": "AlphaScreen; NRF2 I86V 4.8 nM, KEAP1 150 nM; signal against NRF2-only control"}, "[18]": {"target": "KEAP1 (wild-type full-length), His-tagged (human) (UniProt Q14145)", "assay": "AlphaScreen; NRF2 I86V 38.4 nM, KEAP1 150 nM; signal against NRF2-only control"}, "[19]": {"target": "KEAP1 (wild-type full-length), His-tagged (human) (UniProt Q14145)", "assay": "AlphaScreen; NRF2 I86V 153.6 nM, KEAP1 150 nM; signal against NRF2-only control"}, "[20]": {"target": "KEAP1 (wild-type full-length), His-tagged (human) (UniProt Q14145)", "assay": "AlphaScreen; 4.8 nM FLAG-NRF2, 150 nM His-KEAP1; Rep 2"}, "[21]": {"target": "KEAP1 (wild-type full-length), His-tagged (human) (UniProt Q14145)", "assay": "AlphaScreen; 38.4 nM FLAG-NRF2, 150 nM His-KEAP1; Rep 2"}, "[22]": {"target": "KEAP1 (wild-type full-length), His-tagged (human) (UniProt Q14145)", "assay": "AlphaScreen; 614.4 nM FLAG-NRF2, 150 nM His-KEAP1; Rep 2"}, "[23]": {"target": "KEAP1 (wild-type full-length), His-tagged (human) (UniProt Q14145)", "assay": "AlphaScreen; 614.4 nM FLAG-NRF2, 150 nM His-KEAP1; signal against NRF2 only"}, "[24]": {"target": "KEAP1 (wild-type full-length), His-tagged (human) (UniProt Q14145)", "assay": "AlphaScreen; mean over 9.6, 19.2 and 38.4 nM NRF2; 150 nM His-KEAP1; against wild-type NRF2 isoform 1"}, "[25]": {"target": "KEAP1 (wild-type full-length), His-tagged (human) (UniProt Q14145)", "assay": "AlphaScreen; FLAG-NRF2 Q75R 307.2 nM, His-KEAP1 150 nM; Rep 1"}, "[26]": {"target": "KEAP1 (wild-type full-length), His-tagged (human) (UniProt Q14145)", "assay": "AlphaScreen; FLAG-NRF2 Q75R 19.2 nM, His-KEAP1 150 nM; Repeat 1"}, "[27]": {"target": "KEAP1 (wild-type full-length), His-tagged (human) (UniProt Q14145)", "assay": "AlphaScreen; NRF2 Q75R 2.4 nM, KEAP1 150 nM; signal against NRF2-only control"}},
  "note": "Substitutions are numbered along the chain they refer to. Names may count otherwise.",
  "data": [
    {"binder": "B1", "values": [
      {"measurement": "A-counts", "setting": "[1]", "value": 1160, "unit": "A-counts"},
      {"measurement": "A-counts", "setting": "[2]", "value": 1620, "unit": "A-counts"},
      {"measurement": "A-counts", "setting": "[3]", "value": 1980, "unit": "A-counts"},
      {"measurement": "A-counts", "setting": "[4]", "value": 2000, "unit": "A-counts"},
      {"measurement": "A-counts", "setting": "[5]", "value": 2000, "unit": "A-counts"},
      {"measurement": "A-counts", "setting": "[6]", "value": 2000, "unit": "A-counts"},
      {"measurement": "A-counts", "setting": "[7]", "value": 3130, "unit": "A-counts"},
      {"measurement": "A-counts", "setting": "[8]", "value": 1930, "unit": "A-counts"},
      {"measurement": "A-counts", "setting": "[9]", "value": 3090, "unit": "A-counts"},
      {"measurement": "A-counts", "setting": "[10]", "value": 1590, "unit": "A-counts"},
      {"measurement": "A-counts", "setting": "[11]", "value": 1900, "unit": "A-counts"},
      {"measurement": "A-counts (NRF2 plus KEAP1)", "setting": "[12]", "value": 2410, "unit": "A-counts"},
      {"measurement": "A-counts (NRF2 plus KEAP1)", "setting": "[13]", "value": 2850, "unit": "A-counts"},
      {"measurement": "S/N", "setting": "[14]", "value": 3.6},
      {"measurement": "% Disruption in Binding", "setting": "[15]", "value": 0, "unit": "%"}
    ]},
    {"binder": "B2", "values": [
      {"measurement": "A-counts (NRF2 plus KEAP1)", "setting": "[16]", "value": 2920, "unit": "A-counts"},
      {"measurement": "S/N", "setting": "[17]", "value": 2.9},
      {"measurement": "S/N", "setting": "[18]", "value": 2.9},
      {"measurement": "S/N", "setting": "[19]", "value": 2}
    ]},
    {"binder": "B3", "values": [
      {"measurement": "A-counts", "setting": "[20]", "value": 1050, "unit": "A-counts"},
      {"measurement": "A-counts", "setting": "[21]", "value": 1680, "unit": "A-counts"},
      {"measurement": "A-counts", "setting": "[22]", "value": 1210, "unit": "A-counts"},
      {"measurement": "S/N", "setting": "[23]", "value": 1},
      {"measurement": "Avg. Reduction in Binding", "setting": "[24]", "value": 30.2, "unit": "%"}
    ]},
    {"binder": "B4", "values": [
      {"measurement": "A-counts (NRF2 plus KEAP1)", "setting": "[25]", "value": 995, "unit": "A-counts"},
      {"measurement": "A-counts (NRF2 plus KEAP1)", "setting": "[26]", "value": 1300, "unit": "A-counts"},
      {"measurement": "S/N", "setting": "[27]", "value": 2}
    ]}
  ]
}
